Test results published in publication PMC5645249.

Substrate: O=[N+]([O-])O
Assay: nitrate reduction with reduced Fd, Michaelis-Menten fit
Type: biochemical, Synechococcus elongatus
Conditions: saturating reduced Synechocystis sp. PCC 6803 ferredoxin as electron donor

Row | Protein | Km [µM]
1 | Synechococcus sp. PCC 7942 NR (ferredoxin-dependent nitrate reductase) (Synechococcus elongatus PCC 7942 = FACHB-805; K215R) (protein) MIDTAKTLCPYCGVGCGLEAVPPAQPGRATVRDREGTPIWQIRGDRQHPSSQGMVCVKGATVAESVSKSRLKYPMFRASLDDPFTEISWDEALDRLCDRIQQTQADYGKDGICFYGSGQFQTEDYYIAQKLVKGCLGTNNFDTNSRLCMSSAVSAYSLCLGSDGPPACYEDLDLADCLLIVGSNTAECHPILFNRYRKRHRQGGTNLIVVDPRCTPTAEVADLHLALKPGSDVALLNGLGWLLYQMGYVKKDFIANQTEGFEDWLAIIEDYPPQRTAELTGLAVAELVRAADLIASAQRWLSLWSMGVNQSIQGTAKATSLINLHLLTRQIGLPGCGPFSLTGQPNAMGGRETGGLAHLLPGYRKVIDPQHRADVETIWGLPMGSISPQPGRTAWQMIEGLEQGAVGFLWVAATNPAVSLPDVKRAQAALKRSPFTVLQDAYHPTETTTYAHLLLPAAQWSEKTGTMTNSERRVTLCQAFRQPPGEARADWQIFAEVGRRLGFAFDYTDAAAVFAEYVQVTAGRLCDLSGLSHELLAQAGPQQWPFPAGAEPTTESKRLYTKHHFAYADGRARFQPFHHLGVAEPPDDRYPLVLTVGRLYGHWHTQTRTGRIDKINKLHPSAFVEIHPRDADRYNISEGQAVVIRSRRGEGCFPAKVTTAISPGVLFVPMHWGALWGDRTEANALTHPAACPISGEPELKACAVQIEAASSTFTI | 9.6 ± 1.0
2 | Synechococcus sp. PCC 7942 NR (ferredoxin-dependent nitrate reductase) (Synechococcus elongatus PCC 7942 = FACHB-805; E233Q) (protein) MIDTAKTLCPYCGVGCGLEAVPPAQPGRATVRDREGTPIWQIRGDRQHPSSQGMVCVKGATVAESVSKSRLKYPMFRASLDDPFTEISWDEALDRLCDRIQQTQADYGKDGICFYGSGQFQTEDYYIAQKLVKGCLGTNNFDTNSRLCMSSAVSAYSLCLGSDGPPACYEDLDLADCLLIVGSNTAECHPILFNRYRKRHKQGGTNLIVVDPRCTPTAQVADLHLALKPGSDVALLNGLGWLLYQMGYVKKDFIANQTEGFEDWLAIIEDYPPQRTAELTGLAVAELVRAADLIASAQRWLSLWSMGVNQSIQGTAKATSLINLHLLTRQIGLPGCGPFSLTGQPNAMGGRETGGLAHLLPGYRKVIDPQHRADVETIWGLPMGSISPQPGRTAWQMIEGLEQGAVGFLWVAATNPAVSLPDVKRAQAALKRSPFTVLQDAYHPTETTTYAHLLLPAAQWSEKTGTMTNSERRVTLCQAFRQPPGEARADWQIFAEVGRRLGFAFDYTDAAAVFAEYVQVTAGRLCDLSGLSHELLAQAGPQQWPFPAGAEPTTESKRLYTKHHFAYADGRARFQPFHHLGVAEPPDDRYPLVLTVGRLYGHWHTQTRTGRIDKINKLHPSAFVEIHPRDADRYNISEGQAVVIRSRRGEGCFPAKVTTAISPGVLFVPMHWGALWGDRTEANALTHPAACPISGEPELKACAVQIEAASSTFTI | 4.5 ± 0.4
3 | Synechococcus sp. PCC 7942 NR (ferredoxin-dependent nitrate reductase) (Synechococcus elongatus PCC 7942 = FACHB-805; R60K) (protein) MIDTAKTLCPYCGVGCGLEAVPPAQPGRATVRDREGTPIWQIRGDKQHPSSQGMVCVKGATVAESVSKSRLKYPMFRASLDDPFTEISWDEALDRLCDRIQQTQADYGKDGICFYGSGQFQTEDYYIAQKLVKGCLGTNNFDTNSRLCMSSAVSAYSLCLGSDGPPACYEDLDLADCLLIVGSNTAECHPILFNRYRKRHKQGGTNLIVVDPRCTPTAEVADLHLALKPGSDVALLNGLGWLLYQMGYVKKDFIANQTEGFEDWLAIIEDYPPQRTAELTGLAVAELVRAADLIASAQRWLSLWSMGVNQSIQGTAKATSLINLHLLTRQIGLPGCGPFSLTGQPNAMGGRETGGLAHLLPGYRKVIDPQHRADVETIWGLPMGSISPQPGRTAWQMIEGLEQGAVGFLWVAATNPAVSLPDVKRAQAALKRSPFTVLQDAYHPTETTTYAHLLLPAAQWSEKTGTMTNSERRVTLCQAFRQPPGEARADWQIFAEVGRRLGFAFDYTDAAAVFAEYVQVTAGRLCDLSGLSHELLAQAGPQQWPFPAGAEPTTESKRLYTKHHFAYADGRARFQPFHHLGVAEPPDDRYPLVLTVGRLYGHWHTQTRTGRIDKINKLHPSAFVEIHPRDADRYNISEGQAVVIRSRRGEGCFPAKVTTAISPGVLFVPMHWGALWGDRTEANALTHPAACPISGEPELKACAVQIEAASSTFTI | 6.6 ± 1.0
4 | Synechococcus sp. PCC 7942 NR (ferredoxin-dependent nitrate reductase) (Synechococcus elongatus PCC 7942 = FACHB-805; R57K) (protein) MIDTAKTLCPYCGVGCGLEAVPPAQPGRATVRDREGTPIWQIKGDRQHPSSQGMVCVKGATVAESVSKSRLKYPMFRASLDDPFTEISWDEALDRLCDRIQQTQADYGKDGICFYGSGQFQTEDYYIAQKLVKGCLGTNNFDTNSRLCMSSAVSAYSLCLGSDGPPACYEDLDLADCLLIVGSNTAECHPILFNRYRKRHKQGGTNLIVVDPRCTPTAEVADLHLALKPGSDVALLNGLGWLLYQMGYVKKDFIANQTEGFEDWLAIIEDYPPQRTAELTGLAVAELVRAADLIASAQRWLSLWSMGVNQSIQGTAKATSLINLHLLTRQIGLPGCGPFSLTGQPNAMGGRETGGLAHLLPGYRKVIDPQHRADVETIWGLPMGSISPQPGRTAWQMIEGLEQGAVGFLWVAATNPAVSLPDVKRAQAALKRSPFTVLQDAYHPTETTTYAHLLLPAAQWSEKTGTMTNSERRVTLCQAFRQPPGEARADWQIFAEVGRRLGFAFDYTDAAAVFAEYVQVTAGRLCDLSGLSHELLAQAGPQQWPFPAGAEPTTESKRLYTKHHFAYADGRARFQPFHHLGVAEPPDDRYPLVLTVGRLYGHWHTQTRTGRIDKINKLHPSAFVEIHPRDADRYNISEGQAVVIRSRRGEGCFPAKVTTAISPGVLFVPMHWGALWGDRTEANALTHPAACPISGEPELKACAVQIEAASSTFTI | 8.1 ± 0.7
5 | Synechococcus sp. PCC 7942 NR (ferredoxin-dependent nitrate reductase) (Synechococcus elongatus PCC 7942 = FACHB-805; R211Q) (protein) MIDTAKTLCPYCGVGCGLEAVPPAQPGRATVRDREGTPIWQIRGDRQHPSSQGMVCVKGATVAESVSKSRLKYPMFRASLDDPFTEISWDEALDRLCDRIQQTQADYGKDGICFYGSGQFQTEDYYIAQKLVKGCLGTNNFDTNSRLCMSSAVSAYSLCLGSDGPPACYEDLDLADCLLIVGSNTAECHPILFNRYQKRHKQGGTNLIVVDPRCTPTAEVADLHLALKPGSDVALLNGLGWLLYQMGYVKKDFIANQTEGFEDWLAIIEDYPPQRTAELTGLAVAELVRAADLIASAQRWLSLWSMGVNQSIQGTAKATSLINLHLLTRQIGLPGCGPFSLTGQPNAMGGRETGGLAHLLPGYRKVIDPQHRADVETIWGLPMGSISPQPGRTAWQMIEGLEQGAVGFLWVAATNPAVSLPDVKRAQAALKRSPFTVLQDAYHPTETTTYAHLLLPAAQWSEKTGTMTNSERRVTLCQAFRQPPGEARADWQIFAEVGRRLGFAFDYTDAAAVFAEYVQVTAGRLCDLSGLSHELLAQAGPQQWPFPAGAEPTTESKRLYTKHHFAYADGRARFQPFHHLGVAEPPDDRYPLVLTVGRLYGHWHTQTRTGRIDKINKLHPSAFVEIHPRDADRYNISEGQAVVIRSRRGEGCFPAKVTTAISPGVLFVPMHWGALWGDRTEANALTHPAACPISGEPELKACAVQIEAASSTFTI | 7.0 ± 0.7
6 | Synechococcus sp. PCC 7942 NR (ferredoxin-dependent nitrate reductase) (Synechococcus elongatus PCC 7942 = FACHB-805; K628R) (protein) MIDTAKTLCPYCGVGCGLEAVPPAQPGRATVRDREGTPIWQIRGDRQHPSSQGMVCVKGATVAESVSKSRLKYPMFRASLDDPFTEISWDEALDRLCDRIQQTQADYGKDGICFYGSGQFQTEDYYIAQKLVKGCLGTNNFDTNSRLCMSSAVSAYSLCLGSDGPPACYEDLDLADCLLIVGSNTAECHPILFNRYRKRHKQGGTNLIVVDPRCTPTAEVADLHLALKPGSDVALLNGLGWLLYQMGYVKKDFIANQTEGFEDWLAIIEDYPPQRTAELTGLAVAELVRAADLIASAQRWLSLWSMGVNQSIQGTAKATSLINLHLLTRQIGLPGCGPFSLTGQPNAMGGRETGGLAHLLPGYRKVIDPQHRADVETIWGLPMGSISPQPGRTAWQMIEGLEQGAVGFLWVAATNPAVSLPDVKRAQAALKRSPFTVLQDAYHPTETTTYAHLLLPAAQWSEKTGTMTNSERRVTLCQAFRQPPGEARADWQIFAEVGRRLGFAFDYTDAAAVFAEYVQVTAGRLCDLSGLSHELLAQAGPQQWPFPAGAEPTTESKRLYTKHHFAYADGRARFQPFHHLGVAEPPDDRYPLVLTVGRLYGHWHTQTRTGRIDRINKLHPSAFVEIHPRDADRYNISEGQAVVIRSRRGEGCFPAKVTTAISPGVLFVPMHWGALWGDRTEANALTHPAACPISGEPELKACAVQIEAASSTFTI | 4.2 ± 0.5
7 | Synechococcus sp. PCC 7942 NR (ferredoxin-dependent nitrate reductase) (Synechococcus elongatus PCC 7942 = FACHB-805; R60Q) (protein) MIDTAKTLCPYCGVGCGLEAVPPAQPGRATVRDREGTPIWQIRGDQQHPSSQGMVCVKGATVAESVSKSRLKYPMFRASLDDPFTEISWDEALDRLCDRIQQTQADYGKDGICFYGSGQFQTEDYYIAQKLVKGCLGTNNFDTNSRLCMSSAVSAYSLCLGSDGPPACYEDLDLADCLLIVGSNTAECHPILFNRYRKRHKQGGTNLIVVDPRCTPTAEVADLHLALKPGSDVALLNGLGWLLYQMGYVKKDFIANQTEGFEDWLAIIEDYPPQRTAELTGLAVAELVRAADLIASAQRWLSLWSMGVNQSIQGTAKATSLINLHLLTRQIGLPGCGPFSLTGQPNAMGGRETGGLAHLLPGYRKVIDPQHRADVETIWGLPMGSISPQPGRTAWQMIEGLEQGAVGFLWVAATNPAVSLPDVKRAQAALKRSPFTVLQDAYHPTETTTYAHLLLPAAQWSEKTGTMTNSERRVTLCQAFRQPPGEARADWQIFAEVGRRLGFAFDYTDAAAVFAEYVQVTAGRLCDLSGLSHELLAQAGPQQWPFPAGAEPTTESKRLYTKHHFAYADGRARFQPFHHLGVAEPPDDRYPLVLTVGRLYGHWHTQTRTGRIDKINKLHPSAFVEIHPRDADRYNISEGQAVVIRSRRGEGCFPAKVTTAISPGVLFVPMHWGALWGDRTEANALTHPAACPISGEPELKACAVQIEAASSTFTI | 55 ± 20
